# The DeepSol protein solubility set
# Experiment: soluble on expression in E. coli; label from the status in PepcDB or PDB records
row,Sequence,soluble on expression in E. coli
1,MSQTIGRIEEISFYSASLQDDVTLLVYLPVNYTPLHKHTVVIAQDGRDYFQLGKAHRVIERLRETEEIDRTIIVGIPYKNVHDRKEKYFPNEVKNAAYIRFLAHELAPYIDENYPTYQMGKGRVLIGDSLGGTVSFMTALMYPHTFGKVVMQSPFVDETVMNLAKEFKDPQALELYHVIGTEETAVKRTDGQVSDFVGPNRELNTLLTDRNFITHYEEFEGNHTWKYWQTDLPKAFSHILSMK,not soluble
2,MSLSDQTLQDILRYLTEETGLAPFQVANTVELLREGGTVPFIARYRKERTGELDEVGIRGIEERLAYFTELEERKLTVLKSIEEQGKLTPELADRIRTSRQKTEVEDLYLPYKPKRRTKATIARERGLEPLADLMAAQELTAGTPEEATLPFVDPAGEVPDAAAALEGAGHILAERLADDADARAFVRRLTADQGIFCSRVAADRKGAVTKFEMYYDHREPLKSVPSHRMLAMRRGEKEEVLVLTIEAPTEEILAGLRARIAGRASIFRQLLEGAAEDAYKRLIAPSIEVELRLEAKQRADEAAITVFAQNLRNLLLAPPAGGKRVLGVDPGLRTGSKLAAVDGTGRFLEHVTIYPHAGGEGKVAAAKREFLRLVECHGIEMVAVGNGTAGREMEQFAKETLAEGGKRIPVVMVSEAGASVYSASEIAREEFPDLDLTVRGAISIARRLQDPLAELVKIDPKSIGVGQYQHDVDQRALKKSLDAVVESCVNYVGVDLNTASWALLSYVSGVGPSLARAIVRHRDEHGPFPARRALMKVPRFGDKAFEQAAGFLRIRGGEHPLDATAVHPERYPVVEAMATDLGVSLSQLAADPALPARIDLKRYVTDAVGLPTLRDIMEELKKPGRDPREEFRTAAFRDDVTEIGDLKEGMVLQGVVTNVTAFGAFVDVGVHQDGLVHVSHLSVKFVKDPAEAVRVGQVVQVKVLSVDVQRKRISLSIREAAPGGAPRSTEGHHHHHH,soluble
3,MTISRRSLLEGLLGAAAGLALLPVLGGRAGAALPREAEVVVVGAGAAGIAAARRIVAAGRKVIVVEAASEIGGRCVTDTTSFAAPFDRGARWLHNPDSNPLVRLARSSGFAVTPVAPGQKVRIGRRNARSRETEDFLAAFVRASRAISDASRGKSDISCAAALPNDLGDWAATIEYVLGPATTSKDLRALSAMDAVRTLDRTALLGCPQGVGSLLTQLASSLPIALSTPVKRIVWSGRDLAVETTAGRIGARAIIVTASTNVLTSGNLGFSPELPKRQLDAAARLSLGSIDRIALQFKGNPLGLSRDETIIERADDIRTATLVGNIGGTSLCTVDVAGSFGRQLAAQGEAAMQDFAIEWLGKLFGSDIAGAVERKAVTRWNEMPYVLGAMSAAEPGGQPSRKVLGEPLGNLFFAGEATHETLFGTVQGAWESGERAADAALKKIGAVKEPAPEKPVRKQKPRREPQRQREQRPPATASGTPSWWRLEHHHHHH,not soluble
4,MLICNSSFPYLQVDYKIGVKGLLAKSKEDIDKCCKGEYFMQLKYVDTKEEIIAINRKSKHIEPHLHNALEIVCVTSGSLELGVGQELYHMEKGDIGFVFPDVIHHYQVLTPGVNKATYLIASPFSIDKFADIMQSMAPEYPIIKAEKVEPEVYRVINAILETEQSDITVAQAYLQIVLARCIGKLNLVEKSSVGSNDLIYQTVSYISANFKKKFSLEEMAKDLGVGKYVLSRLFSKTFHRNFNQYLNDARLNYACHRLENTSDSITNICLDSGFESQRTFNRVFKEKYKISPSDYRSTCVKEMLS,not soluble
5,SSEAYFPVESGALGPEENFLSLDDILMSQEKLPVRVETPMPRLGAFFLERGAGSEPDHPLPQGTKLELPLWLAKGLFDHKRRILSVELPKMYQEGWRTVFSADANVVDLHKMGPHFYGFGSQLLHFDSPENADISQSLLKTFIGRFRRIMDSSQNSYNEDTSALVARLDETERGLFQIGQRSLNDFQSWEKGQASQITASSLVQNYKKRKFTNMED,soluble
6,MIFLIVLKYPVSLNVIRKLKTGDVVYYTGKIVVMDRSVVDILEKYERYEGTKLYDLTGEIVVLGTFRKNKLQFQEMTEELLERLFLLGVNGVILERVRPFSATKRFSRVLFEPLEEIRGTRRVIYKTPDSKKLEELEVEKLVLRVVQDSSGKVYSKV,not soluble
7,GPGSMEQGAFNDVAKKALEFRNRYYKMLDDPQDRLNVAGLYAPDVPMVCEWNGHPLSTVDDVRNYISALPKTSHQVDMVDAQPLPDNQDGDSFLLTVHGIVTYNDEHRREFYQRMVIRRFEQRYYILNDYYRWLSERSQ,soluble
